Laboratory results: US20170267766A1 (PIERRE FABRE MEDICAMENT, published 2017)

Key:
[1] = target: T1, human insulin receptor (on cells) (human, UniProt P06213 28-1382); assay: FACS on hIR+ transfected cells, 4°C
T1 construct: whole, on cells; on stably transfected cells or on IM9 cells; also called hIR; IR
Description: (§1) In order to verify the absence of binding of both murine and chimeric antibodies on hIR, a stable cell line expressing the human IR was used. The recognition of human cell surface hIR by both murine and chimeric Ab was performed by FACS analyses. Increasing concentrations of either the murine or the chimeric mAbs were incubated on the hIR′ transfected cell line for 20 minutes at 4° C. in FACS buffer (PBS, 0.1% BSA, 0.01% NaN₃). Cells were then washed 3 times and incubated with the appropriate secondary antibody coupled with Alexa 488 before being incubated for 20 additional minutes at 4° C. in the dark and then washed 3 times in FACS buffer. The binding of anti-IGF-1R antibodies was immediately performed on viable cells which were identified using propidium iodide (that stains dead cells). The binding EC₅₀ expressed in molarity (M) was calculated using a nonlinear regression analysis (GraphPad Prims 4.0). […] The c9G4 was introduced as an irrelevant antibody (isotype control).

[2] = target: T2, human IGF-1R (native, on cells) (human, UniProt P08069 31-1367); assay: cell-based or functional assay
[3] = target: T3, rhIR protein (R&D Systems, cat No 1544-IR/CF) (human, UniProt P06213-2 28-944); assay: ELISA, coated rhIR 1 ug/ml
T3 construct: extracellular domain; bought; also called rh Insulin R; recombinant human Insulin Receptor
Description: (§2) In addition three ELISA were performed (either before or after cloning) to study the binding of antibodies on the recombinant human (hIGF-1R) and murine (mIGF-1R) proteins, and on the recombinant human Insulin Receptor (hIR) protein. […] The plates were then blocked with PBS containing 0.5% gelatin (#22151, Serva Electrophoresis GmbH, Heidelberg, Germany) for 2 h at 37° C. Once the saturation buffer discarded by flicking plates, 100 μl of each supernatant dilution were added to the wells (either undiluted hybridoma supernatant either supernatant serial dilutions) and incubated for 1 h at 37° C. […] Then, ELISA plates were washed 3-times and the TMB (#UP664782, Uptima, Interchim, France) substrate is added. After a 10 min incubation time at room temperature, the reaction was stopped using 1 M sulfuric acid and the optical density at 450 nm is measured.

[4] = target: T4, monkey IGF-1R (on COS-7 cells) (African green monkey); assay: cell-based or functional assay
[5] = target: T2, human IGF-1R (native, on cells); assay: cell-based or functional assay; remark: listed apart in the source
[6] = target: T5, rmIGF-1R protein (R&D Systems, cat No 6630-GR/Fc) (murine, UniProt Q60751 31-936); assay: ELISA, coated rm IGF-1R, SNT 5 ug/ml
T5 construct: extracellular domain; bought; also called murine extracellular domain (ECD) of IGF-1R; not shown: Fc only implied by the catalogue number; not described
T5 sequence (Q60751 31-936): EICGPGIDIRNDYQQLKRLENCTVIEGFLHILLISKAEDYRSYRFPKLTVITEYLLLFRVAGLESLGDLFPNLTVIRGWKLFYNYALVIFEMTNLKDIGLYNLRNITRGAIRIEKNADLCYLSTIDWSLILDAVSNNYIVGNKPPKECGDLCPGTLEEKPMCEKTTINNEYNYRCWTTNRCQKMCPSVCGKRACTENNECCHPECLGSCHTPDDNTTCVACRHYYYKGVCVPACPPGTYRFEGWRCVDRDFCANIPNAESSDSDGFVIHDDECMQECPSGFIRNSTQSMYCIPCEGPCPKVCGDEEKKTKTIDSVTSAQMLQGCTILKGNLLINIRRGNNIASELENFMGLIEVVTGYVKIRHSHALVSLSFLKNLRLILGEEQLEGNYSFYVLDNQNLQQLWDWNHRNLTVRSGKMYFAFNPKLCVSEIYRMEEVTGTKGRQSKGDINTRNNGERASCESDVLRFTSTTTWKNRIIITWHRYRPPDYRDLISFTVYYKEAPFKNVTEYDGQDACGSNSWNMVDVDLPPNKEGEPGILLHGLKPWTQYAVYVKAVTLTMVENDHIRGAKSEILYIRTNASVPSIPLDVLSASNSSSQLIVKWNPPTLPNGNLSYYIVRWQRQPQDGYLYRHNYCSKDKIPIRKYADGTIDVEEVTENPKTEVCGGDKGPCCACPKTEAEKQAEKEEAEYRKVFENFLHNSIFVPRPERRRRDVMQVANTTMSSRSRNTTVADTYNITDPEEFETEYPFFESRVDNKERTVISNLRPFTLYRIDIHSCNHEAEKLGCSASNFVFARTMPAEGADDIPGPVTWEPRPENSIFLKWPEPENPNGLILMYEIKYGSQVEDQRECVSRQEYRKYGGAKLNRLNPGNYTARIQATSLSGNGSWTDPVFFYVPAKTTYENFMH
Description: as §2

[7] = target: T4, monkey IGF-1R (on COS-7 cells); assay: FACS, Cos-7 (monkey IGF1R+), Ab 5 ug/ml
[8] = target: T2, human IGF-1R (native, on cells); assay: FACS, MCF7, 4°C, Ab 5 ug/ml
Description: Additionally an internalization assay was performed in order to select only internalizing antibodies. For this assay, the MCF7 tumor cell line was cultured in RMPI 1640 without phenol red with 1% L-glutamine and 10% of […] for 3 days before experiment. Cells were then detached using trypsin and 100 μl of a cell suspension at 4·10⁵ cell/ml are plated in 96-multiwell plates in RPMI1640 without phenol red with 1% L-glutamine and 5% FBS. After a 2 min centrifugation at 2000 rpm, cells were resupended in 50 μl of hybridoma supernatant or control antibody solutions (positive and isotype controls at 1 μg/ml). After a 20 min incubation time at 4° C., cells were centrifuged 2 min at 2000 rpm and resuspended in either cold (4° C.) or warm (37° C.) complete culture medium. Cells were then incubated for 2 hours either at 37° C. or at 4° C. Then cells were washed three times with FACS buffer. An Alexa 488-labeled goat anti-mouse IgG antibody was incubated for 20 minutes and cells were washed three times before FACS analysis on propidium iodide negative cell population.

[9] = target: T2, human IGF-1R (native, on cells); assay: FACS, Tf hIGF1R+ cells, Ab 5 ug/ml
[10] = target: T5, rmIGF-1R protein (R&D Systems, cat No …); assay: ELISA, coated rmIGF-1R (Table 8)
Description: as §2

[11] = target: T2, human IGF-1R (native, on cells); assay: FACS on MCF-7 cells, 4°C; inset table, axis log [M]
Description: The binding properties of a series of anti-IGF-1R antibodies were evaluated by FACS analyses on the human MCF-7 breast adenocarcinoma cell line (ATCC#HTB-22) using increasing antibody concentrations. For that purpose, cells (1×10⁶ cells/ml) were incubated with anti-IGF-1R antibodies for 20 min. at 4° C. in FACS buffer (PBS, 0.1% BSA, 0.01% NaN₃). They were then washed 3 times and incubated with the appropriate secondary antibody coupled with Alexa 488 for 20 additional minutes at 4° C. in the dark before being washed 3 times in FACS buffer. The binding of anti-IGF-1R antibodies was immediately performed on viable cells which were identified using propidium iodide (that stains dead cells). The maximum of signal intensity obtained with each antibody was designed as Bₘₐₓ and expressed in mean of fluorescence intensity (MFI). The EC₅₀ of binding expressed in molarity (M) was calculated using a nonlinear regression analysis (GraphPad Prims 4.0).

[12] = target: T2, human IGF-1R (native, on cells); assay: cell-based or functional assay; remark: listed apart in the source
[13] = target: T4, monkey IGF-1R (on COS-7 cells); assay: FACS on COS-7 cells, 4°C; inset table, axis log [M]
Description: In order to evaluate the binding of anti-IGF-1R antibodies on monkey IGF-1R, the binding of both murine and chimeric anti-hIGF-1R antibodies was evaluated by FACS analyses on COS-7 cell line using increasing antibody concentrations. Cells (1×10⁶ cells/ml) were incubated with anti-IGF-1R antibodies for 20 minutes at 4° C. in FACS buffer (PBS, 0.1% BSA, 0.01% NaN₃). Then, cells were washed 3 times and incubated with the appropriate secondary antibody coupled with Alexa 488 before being incubated for 20 additional minutes at 4° C. in the dark and finally washed 3 times in FACS buffer. The binding of anti-IGF-1R antibodies was immediately evaluated on viable cells identified using propidium iodide (that stains dead cells). The binding EC₅₀ expressed in molarity (M) was calculated using a nonlinear regression analysis (GraphPad Prims 4.0).

[14] = target: T1, human insulin receptor (on cells); assay: FACS on IM-9 cells (express hIR), 4°C
Description: as §1
For this FACS analysis, the protocol was the same as the one described previously and murine anti-IGF-1R antibodies were used in order to prevent the cross reactivity of the secondary anti-human Ab (IM9 cells express human Ig on their cell surface).

| hIGF-1R phosphorylation in response to IGF-1 (western blot, MCF-7) [2] | binding result [3] | % internalisation [4] | ΔMFI [4] | HalfLife (decay of cell-surface bound antibody on MCF-7 at 37°C) [5] | D.O 450 nm [6] | MFI [7] | MFI 4°C [8] | MFI [9] | binding result [10] | EC50 [11] | % remaining rh IGF1R [12] | MFI 37°C (internalisation assay, MCF7) [12] | Δ (MFI 4°C - MFI 37°C) [12] | EC50 [13] | Binder | binding result [1] | binding result [14] |
| --- | --- | --- | --- | --- | --- | --- | --- | --- | --- | --- | --- | --- | --- | --- | --- | --- | --- |
| > 80% | no binding | 73% | 83 MFI | 14.3 min (unit from p-0380; none on the sheet) | 0.102 D.O 450 nm | 125 MFI | 390 MFI | 2190 MFI | no binding | – | – | – | – | – | m212A11 (antibody, V domains shown, murine mAb, hybridoma CNCM I-4773, group G2) VH: QVQLQQSGPELVKPGASVKMSCKASGYTFTSYYIHWVKQRPGQGLEWIGWIWPGDGSTKYNEKFKGKTTLTADKSSSTAYMFLSSLTSEDSAVYFCASPMITPNYAMDYWGQGASVTVSS VL: DIQMTQTTSSLSASLGDRVTISCRASQDINKYLNWYQQQPDGTVKLLIYYTSRLHSGVPSRFSGRGSGTDYSLTISNLEQEDIATYFCQQGSTLPYTFGGGTKLEIK | no binding (tested: log [M] about -6.5 (about 3e-7 M)) | – |
| > 80% | no binding | 74% | 53 MFI | 11.1 min (unit from p-0380; none on the sheet) | 0.099 D.O 450 nm | – | 355 MFI | 2200 MFI | no binding | 0.526 nM | 27% | 94 MFI | 261 MFI | 0.758 nM | m208F2 (antibody, V domains shown, murine mAb, hybridoma CNCM I-4757, group G2; also called murine 208F2) VH: QVQLQQSGPELVKPGASVKMSCKASGYTFTSYYIYWVKQRPGQGLEWLGWIWPGDGSTKYNEKFKDKTTLTADKSSNTAYMFLSSLTSEDSAVYFCASPMITPNYAMDYWGQGASVTVSS VL: DIQMTQTTSSLSASLGDRVTISCRASQDISKYLNWYQQQPDGTIKLLIYYTSRLHSGVPSRFSGRGSGTDYSLTISNVEQEDIATYFCQQGSTLPYTFGGGTKLEIK | no binding (tested: log [M] about -6.5 (about 3e-7 M)) | – |
| > 80% | no binding | 71% | 76 MFI | 16.8 min (unit from p-0380; none on the sheet) | 0.102 D.O 450 nm | 132 MFI | 386 MFI | 2140 MFI | no binding | – | 29% | 111 MFI | 275 MFI | – | m214F8 (antibody, V domains shown, murine mAb, hybridoma CNCM I-4775, group G2) VH: QVQLQQSGSELVKPGASVKLSCKASGYTFTSYYIHWVKQRPGQGLEWIGWIWPGDGSTKYNERFKGKTTLTADKSSSTAYMFLSSLTSEDSAVYFCASPMITPNYAMDYWGQGASVTVSS VL: DIQMTQTTSSLSASLGDRVTFSCRASQDISKYLNWYQQQPDGTIKLLIYYTSRLHSGVPSRFSGRGSGTDYSLTITNLEQEDIATYFCQQGSALPYTFGGGTKLEIK | – | no binding (tested: log [M] about -6.5 (about 3e-7 M)) |
| > 80% | no binding | 74% | 84 MFI | 12.8 min (unit from p-0380; none on the sheet) | 0.127 D.O 450 nm | 122 MFI | 386 MFI | 2060 MFI | no binding | – | 30% | 115 MFI | 271 MFI | – | m213B10 (antibody, V domains shown, murine mAb, hybridoma CNCM I-4774, group G2) VH: QVQLQQSGSELVKPGASVKMSCKASGYTFTSYYIHWVKQRPGQGLEWIGWIWPGDGSTKYNERFKGKTTLTADKSSSTAYMFLSSLTSEDSAVYFCASPMITPNYAMDYWGQGASVTVSS VL: DIQMTQTTSSLSASLGDRVTISCRASQDISKYLNWYQQQPDGTIKLLIYYTSRLHSGVPSRFSGRGSGTDYSLTITNLEQEDIATYFCQQGSALPYTFGGGTKLEIK | – | no binding (tested: log [M] about -6.5 (about 3e-7 M)) |
| > 80% | no binding | 71% | 80 MFI | 17.9 min (unit from p-0380; none on the sheet) | 0.112 D.O 450 nm | 114 MFI | 349 MFI | 2110 MFI | no binding | – | – | – | – | – | m219D6 (antibody, V domains shown, murine mAb, hybridoma CNCM I-4736, group G2) VH: QVQLQQSGPELVKPGDSVKMSCKASGYSFTSYFIHWVKQRPGQGLEWIGWIWPGDGSTKYNEKFKGKTTLTTDKSSSTAYMFLNSLTSEDSAVYFCASPMITPNYAMDYWGQGASVTVSS VL: DIQMTQTTSSLSASLGDRVTISCRASQDISKYLNWYQQQPDGTVKLLIYYTSRLHSGVPSRFSGRGSGTDYSLTISNLEQEDIATYFCQQGSTLPYTFGGGTKLEIK | no binding (tested: log [M] about -6.5 (about 3e-7 M)) | – |
